Laboratory results published in patent US8697629B2, “Modulation of intracellular signaling” (Angstrom Pharmaceuticals, Inc., priority 2010, dated 2014).

Experiments:
[1] = molecular target: T1, CD44 (Homo sapiens, UniProt P16070); assay: FACs analysis of anti-CD44 (DF1485) binding to SKOV3 cells in the presence of Å6; assay type: cell-based; conditions: pre-incubation with Å6 10 or 30 min on ice
T1 construct: endogenous in cells; host or cells: SKOV3 cells
Description: In FIG. 4 SKOV3 cells were detached from their culture flasks by brief trypsinization, washed twice with DPBS and incubated on ice with the indicated concentrations of Å6 for 10 min (exp. 1) or 30 min (exp. 2). Anti-CD44 (DF1485; Santa Cruz Biotech.) or its isotype control were then added to final concentrations of 1 μg/ml (exp. 1) or 1 and 0.5 μg/ml (exp. 2) and the cells incubated for 1 hr on ice. The cells were washed once and incubated with FITC-conjugated donkey anti-mouse IgG (H+L) for 30 minutes on ice and then subjected to FACS analysis with a Beckman Coulter Epics XL-MCL cytofluorimeter. Data analysis was performed using the Coulter Epics software. Note: Data are presented as mean fluorescence intensities (MnI) obtained with the MnI of the negative control in each experiment adjusted to <0.5 during data collection. […] Similar CD44 expression in ovarian cancer lines using different anti-CD44 antibodies is assessed in FIG. 5, for which the MnI values are summarized in FIG. 6.

[2] = test system: SKOV3 cells; assay: Adhesion of SKOV3 cells to hyaluronic acid; assay type: cell-based; conditions: immobilized HA; 1 or 10 uM Å6; 20 ng/ml IM7
Description: In FIG. 11 SKOV3 cells were cultured overnight with or without 10 μM Å6 or 100 ng/ml PMA. The cells were then detached, washed and loaded with 20 μg/ml CFDA-SE for 30 min at 37° C. After washing, the cells were resuspended in PBS containing 10% FCS and triplicate aliquots representing 100,000 cells incubated for 30 min at room temperature with no additions, 1 or 10 uM Å6 or with 20 ng/ml IM7, a blocking anti-CD44 rat monoclonal antibody. The cells were then placed into microtiter wells that had been coated with 50 μL of 1 mg/mL HA overnight and blocked for 30 min with 10% FCS. The cells were allowed to adhere at room temperature for 30 minutes after which, the wells were decanted and washed 3 times. The fluorescence in each well was assessed (excit./emiss.: 460/536 nm) and the mean fluorescence values (+/standard deviation) of the triplicate determinations calculated.

[3] = test system: B16 melanoma cells; assay: B16 melanoma lung metastasis model; assay type: in vivo, C57BL/6J mice; conditions: melanoma cells injected in the tail vein
Description: The B16 melanoma metastasis is well known in the art. A typical protocol for assessing the inhibitory effect of a compound on metastasis is described below. Such a protocol was followed to assess the effect of Å6 on metastasis.
Briefly, B16 melanoma cells can be cultured in RPMI-1640 with 10% fetal bovine serum at 37° C. in an atmosphere of 95% air and 5% CO2. C57BL/6J mice of six to eight weeks can be purchased from commercial suppliers. For the lung metastasis model, about 1×10^5 melanoma cells suspended in 100 μl saline were injected in the tail vein in the presence or absence of Å6. Administration of the Å6 peptide inhibited the lung metastasis by 50% or more.

[4] = molecular target: T1, CD44; assay: Dimerization of CD44 in SKOV3 cells, anti-CD44 B-F24 immunoblot; assay type: cell-based; conditions: SKOV3 cultured 20 hr with 1 or 10 μM Å6, non-reducing
Description: In FIG. 13 SKOV3 cells were cultured for 20 hr with no additions, 1 or 10 μM Å6 or 100 ng/ml PMA. Triton X-100 lysates were generated and further solubilized in SDS-PAGE sample buffer under non-reducing conditions. Aliquots representing 7.5 μg of cellular protein were subjected to SDS-PAGE followed by immunoblot analysis with the anti-CD44 murine monoclonal B-F24. The presence of stained higher molecular weight bands can be indicative of CD44 dimers and/or oligomers.

T1 sequence (P16070 21-742): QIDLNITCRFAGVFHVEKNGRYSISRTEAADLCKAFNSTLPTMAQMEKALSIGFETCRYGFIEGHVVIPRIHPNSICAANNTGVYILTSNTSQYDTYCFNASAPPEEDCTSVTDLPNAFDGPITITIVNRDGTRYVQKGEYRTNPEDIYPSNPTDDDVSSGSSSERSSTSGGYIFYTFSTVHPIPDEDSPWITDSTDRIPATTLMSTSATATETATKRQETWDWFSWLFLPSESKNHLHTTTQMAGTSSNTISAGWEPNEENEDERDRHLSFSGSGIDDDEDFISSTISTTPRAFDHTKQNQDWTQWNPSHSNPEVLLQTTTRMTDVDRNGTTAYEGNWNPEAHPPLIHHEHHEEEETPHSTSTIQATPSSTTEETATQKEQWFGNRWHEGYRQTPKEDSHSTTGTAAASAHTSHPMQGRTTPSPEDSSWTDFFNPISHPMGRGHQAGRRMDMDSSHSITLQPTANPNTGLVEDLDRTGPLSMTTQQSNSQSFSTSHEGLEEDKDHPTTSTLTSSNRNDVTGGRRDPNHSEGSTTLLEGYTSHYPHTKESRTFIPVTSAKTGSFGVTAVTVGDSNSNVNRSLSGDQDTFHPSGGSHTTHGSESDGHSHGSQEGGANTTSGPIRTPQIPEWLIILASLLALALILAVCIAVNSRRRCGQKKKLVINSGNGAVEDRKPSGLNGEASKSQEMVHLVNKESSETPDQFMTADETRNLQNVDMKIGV

In the case of “acetyl-Lys-Pro-Ser-Ser-Pro-Pro-Glu-Glu-NH2 (Ac-KPSSPPEE-NH2) [Å6]”, the “binding of DF1485 anti-CD44 to SKOV3 cells (MnI)” value [1] was “inhibits the binding of DF1485 anti-CD44 to SKOV3 cells”, the “SKOV3 binding to HA” value [2] was “enhanced” and the “inhibition of lung metastasis” value [3] was ≥ 50%. For the same substance, the “CD44 higher molecular weight bands (dimers and/or oligomers)” value [4] was “higher molecular weight bands are formed”.
